Assay results published in article PMC3965691 (Biochemistry, 2011).
Numbering of substitutions follows the chain as printed. Names may count otherwise.

T1: HI-2(1-152) (human, UniProt P41236 1-152)
T1 sequence (looked up): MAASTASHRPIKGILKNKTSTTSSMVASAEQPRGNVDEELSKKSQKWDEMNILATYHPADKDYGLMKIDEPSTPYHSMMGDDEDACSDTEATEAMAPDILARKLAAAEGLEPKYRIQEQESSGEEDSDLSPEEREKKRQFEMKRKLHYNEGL

B1: His6-HI-2 (human phosphatase inhibitor-2, wild type, full length) (natural protein, UniProt P41236 1-205, looked up)
chain: MAASTASHRPIKGILKNKTSTTSSMVASAEQPRGNVDEELSKKSQKWDEMNILATYHPADKDYGLMKIDEPSTPYHSMMGDDEDACSDTEATEAMAPDILARKLAAAEGLEPKYRIQEQESSGEEDSDLSPEEREKKRQFEMKRKLHYNEGLNIKLARQLISKDLHDDDEDEEMLETADGESMNTEESNQGSTPSDQQQNKLRSS
B2: GST-Pin1iso (human Pin1 isomerase domain, residues 46-163, fused to GST) (domain or fragment, UniProt Q13526 46-163, looked up)
chain: KNGQGEPARVRCSHLLVKHSQSRRPSSWRQEKITRTKEEALELINGYIQKIKSGEEDFESLASQFSDCSSAKARGDLGAFSRGQMQKPFEDASFALRTGEMSGPVFTDSGIHIILRTE
B3: HI-2(I68A) (natural protein, human, UniProt P41236 1-205, looked up)
chain: B1 chain with I68A

Tests used:
[1] = target: Pin1 free of GST (thrombin-cleaved GST-Pin1) (human, UniProt Q13526 1-163); experiment: SEC
HI-2(I68A) = target: B3; experiment: pull-down
[2] = target: B1; experiment: pull-down
HI-2(1-152) = target: T1, HI-2(1-152); experiment: pull-down

stoichiometry N [1]	binding result [2]	also measured	Binder
1 I-2 per Pin1 (2:2)	–	–	B1
–	–	binding result (HI-2(I68A)): binds	B2
1 I-2 per Pin1 (1:1)	–	–	B3
–	binds	–	MADEEKLPPGWEKRMSRSSGRVYYFNHITNASQWERPSGNSSSG (domain or fragment, human, UniProt Q13526 1-44, looked up, phosphoserine at 16 (PKA)) [PKA phosphorylated GST-Pin1ww]
–	binds	binding result (HI-2(1-152)): binds	MADEEKLPPGWEKRMSRSSGRVYYFNHITNASQWERPSGNSSSG (domain or fragment, UniProt Q13526 1-44, looked up) [GST-Pin1ww (human Pin1 WW domain, residues 1-44, fused to GST)]
